Consider one substance from paper PMC6404747.

This experiment addresses Smurf (UniProt Q9V853). Briefly: co-IP Myc-Smo / Fg-Smurf. Particulars: reference: wild-type Myc-Smo plus Hh; sites S667,S687,S740.

In the case of “Smoothened (Smo) (from UniProt P91682) Myc-SmoSA plus Hh”, the “binding against the reference” value is “stronger”.
